Results published in publication PMC11272584 (Nature Metabolism, 2024).
Positions count from the first letter of the chain named. Names may count otherwise.

T1: GIPR L261H (Homo sapiens, UniProt P48546, L261H)
T1 construct: host or cells: HEK293
T1 sequence (P48546 22-466 L261H): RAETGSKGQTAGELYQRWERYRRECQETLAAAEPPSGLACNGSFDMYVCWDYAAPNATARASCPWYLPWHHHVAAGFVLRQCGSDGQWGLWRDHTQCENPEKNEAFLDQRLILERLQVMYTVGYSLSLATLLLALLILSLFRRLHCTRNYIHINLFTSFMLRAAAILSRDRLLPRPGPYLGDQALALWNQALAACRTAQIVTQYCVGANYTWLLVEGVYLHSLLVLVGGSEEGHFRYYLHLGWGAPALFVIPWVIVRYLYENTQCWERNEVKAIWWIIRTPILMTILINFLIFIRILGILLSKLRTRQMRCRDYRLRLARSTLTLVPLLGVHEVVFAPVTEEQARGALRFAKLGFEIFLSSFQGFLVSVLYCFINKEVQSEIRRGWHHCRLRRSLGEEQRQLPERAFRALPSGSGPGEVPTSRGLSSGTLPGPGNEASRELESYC

T2: GIPR R300W (Homo sapiens, UniProt P48546, R300W)
T2 construct: host or cells: HEK293
T2 sequence (P48546 22-466 R300W): T1 sequence (P48546 22-466 L261H) with H240L, R279W

T3: GIPR E291K (Homo sapiens, UniProt P48546, E291K)
T3 construct: host or cells: HEK293
T3 sequence (P48546 22-466 E291K): T1 sequence (P48546 22-466 L261H) with H240L, E270K

T4: GIPR I299V (Homo sapiens, UniProt P48546, I299V)
T4 construct: host or cells: HEK293
T4 sequence (P48546 22-466 I299V): T1 sequence (P48546 22-466 L261H) with H240L, I278V

T5: GIPR R336P (Homo sapiens, UniProt P48546, R336P)
T5 construct: host or cells: HEK293
T5 sequence (P48546 22-466 R336P): T1 sequence (P48546 22-466 L261H) with H240L, R315P

T6: GIPR E288G (Homo sapiens, UniProt P48546, E288G)
T6 construct: host or cells: HEK293
T6 sequence (P48546 22-466 E288G): T1 sequence (P48546 22-466 L261H) with H240L, E267G

T7: GIPR L304R (Homo sapiens, UniProt P48546, L304R)
T7 construct: host or cells: HEK293
T7 sequence (P48546 22-466 L304R): T1 sequence (P48546 22-466 L261H) with H240L, L283R

T8: GIPR A294V (Homo sapiens, UniProt P48546, A294V)
T8 construct: host or cells: HEK293
T8 sequence (P48546 22-466 A294V): T1 sequence (P48546 22-466 L261H) with H240L, A273V

B1: L261H (protein)
chain: T1 sequence (P48546 22-466 L261H)
B2: R300W (protein)
chain: T1 sequence (P48546 22-466 L261H) with H240L, R279W
B3: E291K (protein)
chain: T1 sequence (P48546 22-466 L261H) with H240L, E270K
B4: I299V (protein)
chain: T1 sequence (P48546 22-466 L261H) with H240L, I278V
B5: R336P (protein)
chain: T1 sequence (P48546 22-466 L261H) with H240L, R315P
B6: E288G (protein)
chain: T1 sequence (P48546 22-466 L261H) with H240L, E267G
B7: L304R (protein)
chain: T1 sequence (P48546 22-466 L261H) with H240L, L283R
B8: A294V (protein)
chain: T1 sequence (P48546 22-466 L261H) with H240L, A273V

Key:
GIPR L261H = target: T1, GIPR L261H; assay: cAMP accumulation; assay type: cell-based
Description: (§1) HEK293 (CRL-1573, American Type Culture Collection) and β-arrestin 1/2 knockout cells, generated from HEK293A[48], were used for cAMP measurement, homologues competition binding and β-arrestin 2 recruitment. […] Both cell lines were cultured at 5% CO2 at 37 °C in Roswell Park Memorial Institute GlutaMAX-I supplemented with 10% fetal bovine serum, 180 units ml^−1 penicillin, and 45 g ml^−1 streptomycin. For the cAMP and binding experiments, cells were transfected with the calcium phosphate precipitation method[49].
(§2) cAMP production was measured with the DiscoverX Hithunter cAMP assay according to the manufacturer’s protocol (DiscoverX). […] On the day of the assay, the cells were washed twice with HEPES-buffered saline (HBS) and incubated with HBS and 1 mM 3-isobutyl-1-methylxanthine for 30 min at 37 °C. […] After the incubation, the assay medium was removed from the plate and the cells were washed with 30 µl PBS and treated with 40 µl enzyme donor–lysis buffer–chemiluminescent reagents and 10 µl cAMP antibodies for 60 min before 40 µl enzyme acceptor solution added. After a 3-h incubation on a shaking table in the dark, the cAMP accumulation was measured based on luminescence with a Perkin Elmer EnVision 2104 Multilabel Microplate Reader.

GIPR variants (groups) [1] = assay: β-arrestin 2 recruitment (BRET); details: for In vitro groups (β-arrestin): arr part of the in vitro group; for Beta, Barr: in vitro β-arrestin recruitment per GIPR variant;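 as to all read-outs here: BRET readout of β-arrestin 2 recruitment in transiently transfected HEK293 cells expressing WT GIPR or a GIPR variant plus GPCR kinase 2, Rluc8 donor and citrine acceptor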
GIPR variants (groups) [2] = assay: cAMP accumulation; assay type: cell-based, human; details: for In vitro groups (cAMP): cAMP part of the in vitro group; for percentage_camp: cAMP production compared with WT; for Beta, cAMP: in vitro cAMP production per GIPR variant
GIPR R300W = target: T2, GIPR R300W; assay: cAMP accumulation; assay type: cell-based
Description: as §1
(§3) cAMP production was measured with the DiscoverX Hithunter cAMP assay according to the manufacturer’s protocol (DiscoverX). […] On the day of the assay, the cells were washed twice with HEPES-buffered saline (HBS) and incubated with HBS and 1 mM 3-isobutyl-1-methylxanthine for 30 min at 37 °C. […] After the incubation, the assay medium was removed from the plate and the cells were washed with 30 µl PBS and treated with 40 µl enzyme donor–lysis buffer–chemiluminescent reagents and 10 µl cAMP antibodies for 60 min before 40 µl enzyme acceptor solution added. After a 3-h incubation on a shaking table in the dark, the cAMP accumulation was measured based on luminescence with a Perkin Elmer EnVision 2104 Multilabel Microplate Reader. […]

GIPR E291K = target: T3, GIPR E291K; assay: cAMP accumulation; assay type: cell-based
Description: as §1, §3

GIPR I299V = target: T4, GIPR I299V; assay: cAMP accumulation; assay type: cell-based
Description: as §1, §3

GIPR R336P = target: T5, GIPR R336P; assay: cAMP accumulation; assay type: cell-based
Description: as §1, §3

GIPR E288G = target: T6, GIPR E288G; assay: cAMP accumulation; assay type: cell-based
Description: as §1, §2

GIPR L304R = target: T7, GIPR L304R; assay: cAMP accumulation; assay type: cell-based
Description: as §1, §3

GIPR A294V = target: T8, GIPR A294V; assay: cAMP accumulation; assay type: cell-based
Description: as §1, §3

| Molecule | Efficacy at 100pmol (cAMP) (GIPR L261H) | In vitro groups (β-arrestin) (GIPR variants (groups) [1]) | Beta, Barr (GIPR variants (groups) [1]) | In vitro groups (cAMP) (GIPR variants (groups) [2]) | percentage_camp (GIPR variants (groups) [2]) [% cAMP] | Beta, cAMP (GIPR variants (groups) [2]) | Efficacy at 100pmol (cAMP) (GIPR R300W) | Efficacy at 100pmol (cAMP) (GIPR E291K) | Efficacy at 100pmol (cAMP) (GIPR I299V) | Efficacy at 100pmol (cAMP) (GIPR R336P) | Efficacy at 100pmol (cAMP) (GIPR E288G) | Efficacy at 100pmol (cAMP) (GIPR L304R) | Efficacy at 100pmol (cAMP) (GIPR A294V) |
| --- | --- | --- | --- | --- | --- | --- | --- | --- | --- | --- | --- | --- | --- |
| B1 | 0.4533 | LoF_arr | 0 | LoF_camp | <50 | 0.4533 | – | – | – | – | – | – | – |
| B2 | – | LoF_arr | 0 | LoF_camp | <50 | 0 | 0.0005276 | – | – | – | – | – | – |
| B3 | – | LoF_arr | 0.1982 | LoF_camp | <50 | 0.3479 | – | 0.3479 | – | – | – | – | – |
| B4 | – | WT-like_arr | 0.7578 | WT-like_camp | >50 | 1.005 | – | – | 1.005 | – | – | – | – |
| B5 | – | LoF_arr | 0.2102 | LoF_camp | <50 | 0.3193 | – | – | – | 0.3193 | – | – | – |
| B6 | – | LoF_arr | 0.09099 | LoF_camp | <50 | 0.04101 | – | – | – | – | 0.04101 | – | – |
| B7 | – | LoF_arr | 0.1329 | LoF_camp | <50 | 0.2373 | – | – | – | – | – | 0.2373 | – |
| B8 | – | WT-like_arr | 0.6328 | WT-like_camp | >50 | 0.6171 | – | – | – | – | – | – | 0.6171 |
